In test [1] the target is FcγRII (CD32) on human CD4+ T cells (human (endogenous in CD4+ T cells of blood donors)) (UniProt P12318).
For test [2] the target is unchanged. The test can be described thus: flow cytometry on cells; activated purified CD4+ T cells incubated with aIgG (100 μg/ml) for 2 h at 37°C, washed three times, stained with biotinylated anti-human IgG Fc and streptavidin PerCP; percent of aIgG+CD4+ T cells. In general terms: Flow cytometry measures light scatter and fluorescence of single cells or particles in a stream.

UniProt P12318, sequence (P12318 34-317): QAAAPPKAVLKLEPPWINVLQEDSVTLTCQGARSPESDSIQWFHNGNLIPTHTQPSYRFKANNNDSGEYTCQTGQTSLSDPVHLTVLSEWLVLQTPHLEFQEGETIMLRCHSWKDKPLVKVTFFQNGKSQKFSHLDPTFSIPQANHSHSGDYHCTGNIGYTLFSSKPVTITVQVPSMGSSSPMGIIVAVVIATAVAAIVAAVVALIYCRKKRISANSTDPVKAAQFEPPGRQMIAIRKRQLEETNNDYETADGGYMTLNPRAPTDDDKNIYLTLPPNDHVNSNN

“Human IgG (heat-aggregated IgG, used as a model of immune complexes; or immobilised on plastic) (ligand)”: in test [1], the IFN-γ in the supernatant (ELISA) after cIgG, then suboptimal PHA for 5 d is 4950 pg/mL; the IL-5 in the supernatant (ELISA) after cIgG, then suboptimal PHA for 5 d was 77.9 pg/mL; the IL-10 in the supernatant (ELISA) after cIgG, then suboptimal PHA for 5 d stood at 143 pg/mL; the TNF-α in the supernatant (ELISA) after cIgG, then suboptimal PHA for 5 d amounted to 59.1 pg/mL. The same substance came in with a percent of aIgG+CD4+ T cells in test [2] of 14.1%.

The values above are taken from PMC6284025.
